Data published in publication PMC9279372.

target: DEIP1-cYFP fusion protein (Arabidopsis thaliana); test: split reporter (BiFC, NanoBiT); BiFC with vector pBIFCt-2in1-CC in N. benthamiana, Agrobacterium co-infiltration with p19; protoplasts isolated three days after infiltration; YFP and RFP fluorescence by confocal microscopy; 80 protoplasts in two independent experiments for each interaction
Sequence (main, as listed by the source): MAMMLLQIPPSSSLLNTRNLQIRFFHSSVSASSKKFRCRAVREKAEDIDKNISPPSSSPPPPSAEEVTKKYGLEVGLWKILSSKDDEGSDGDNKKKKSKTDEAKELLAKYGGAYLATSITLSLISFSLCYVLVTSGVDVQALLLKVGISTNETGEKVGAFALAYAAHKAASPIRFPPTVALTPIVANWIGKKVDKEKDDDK

Q: How did the percent of transfected protoplasts with YFP fluorescence turn out when “DEIP1-cYFP fusion protein (natural protein)” was run?
A: 54%

Q: Which percent of transfected protoplasts with YFP fluorescence does the source give for “PetA with the pea RBCS chloroplast transit peptide and C-terminal nYFP (from UniProt P56771 36-320)” here?
A: 30%

Q: With “PetB with the pea RBCS chloroplast transit peptide and C-terminal nYFP (from UniProt P56773 1-215)” as the substance, how does the percent of transfected protoplasts with YFP fluorescence read?
A: 28%

Q: How did the percent of transfected protoplasts with YFP fluorescence turn out when “PetD with the pea RBCS chloroplast transit peptide and C-terminal nYFP (from UniProt P56774 1-160)” was run?
A: 17%
